A short description of this data set: α-2,3-sialyltransferase activity assay with capillary electrophoresis detection. The following applies: lysates of E. coli expressing the Cst-I protein; for sialyltransferase activity: acceptor 1 mM Lac-FCHASE, donor 0.2 mM CMP-Neu5Ac, 37° C., pH 7. It counts as biochemical. The method, then: Assays. Protein concentration was determined using the bicinchoninic acid protein assay kit (Pierce, Rockford, Ill.). For all of the enzymatic assays, one unit of activity was defined as the amount of enzyme that generated one […] of product per minute. FCHASE-labelled oligosaccharides are prepared as described in Gilbert et al. (1997) Eur. J. Biochem. 249: 187-194. p-Nitrophenol-glycosides (p-NP-glycosides) were obtained from Sigma-Aldrich.
The -2,3-sialyltransferase activity was assayed at 37° C. using 1 mM Lac-FCHASE (6-(5-fluorescein-carboxamido)-hexanoic acid succimidyl ester), 0.2 mM CMP-Neu5Ac, 50 mM MOPS pH 7, 10 mM MnCl2 and 10 mM MgCl2 in a final volume of 10 μL. After 5 min the reaction mixtures with fluorogenic acceptors were diluted with 10 mM NaOH and analyzed by capillary electrophoresis performed using the separation conditions as described previously (Gilbert et al. (1997) supra.).

B1: Cst-I O:19: α-2,3-sialyltransferase Cst-I from Campylobacter jejuni strain O:19, amino acid sequence of FIG. 3, SEQ ID NO:8 (protein, listed as Campylobacter jejuni)
chain: MTRTRMENELIVSKNMQNIIIAGNGPSLKNINYKRLPREYDVFRCNQFYFEDKYYLGKKIKAVFFNPGVFLQQYHTAKQLILKNEYEIKNIFCSTFNLPFIESNDFLHQFYNFFPDAKLGYEVIENLKEFYAYIKYNEIYFNKRITSGVYMCAIAIALGYKTIYLCGIDFYEGDVIYPFEAMSTNIKTIFPGIKDFKPSNCHSKEYDIEALKLLKSIYKVNIYALCDDSILANHFPLSININNNFTLENKHNNSINDILLTDNTPGVSFYKNQLKADNKIMLNFYNILHSKDTLIKFLNKEIAVLKKQTTQRAKARIQNHLSYKLGQALIINSKSVLGFLSLPFIILSIVISHKQEQKAYKFKVKKNPNLALPPLETYPDYNEALKEKECFTYKLGEEFIKAGKNWYGEGYIKFIFKDVPRLKREFEKGE
modifications: sialyltransferase polypeptide sequence from strain O19
For B1, the “transfer of Neu5Ac from CMP-Neu5Ac to an acceptor” value was “catalyze the transfer of Neu5Ac from CMP-Neu5Ac to an acceptor” and the sialyltransferase activity amounted to 324.9 mU/ml.

B2: Cst-I O:36: α-2,3-sialyltransferase Cst-I from Campylobacter jejuni strain O:36, amino acid sequence of FIG. 2, SEQ ID NO:6 (protein, listed as Campylobacter jejuni)
chain: MTRTRMENELIVSKNMQNIIIAGNGPSLKNINYKRLPREYDVFRCNQFYFEDKYYLGKKIKAVFFNPGVFLQQYHTAKQLILKNEYEIKNIFCSTFNLSFIESNDFLHQFYNFFPDAKLGYEVIENLKEFYAYIKYNEIYFNKRITSGVYMCAIAIALGYKTIYLCGIDFYEGDVIYPFEAMSTNIKTIFPGIKDFKPSNCHSKEYDIEALKLLKSIYKVNIYALCDDSILANHFPLSININNNFTLENKHNNSINDILLTDNTPGVSFYKNQLKADNKIMLDFYNILHSKDNLIKFLNKEIAVLKKQTTQRAKTRIQNHLSYKLGQALIINSKSVLGYLSLPFIILSIVISHKQEQKAYKFKVKKNPNLALPPLETYPDYKEALKEKECFTYKLGEEFIKASKNWYGGGYIKFYFKDVSRLKREIKEK
modifications: sialyltransferase polypeptide sequence from strain O36
With B2, the “transfer of Neu5Ac from CMP-Neu5Ac to an acceptor” value was “catalyze the transfer of Neu5Ac from CMP-Neu5Ac to an acceptor” and the sialyltransferase activity amounted to 50.3 mU/ml.

The values above are taken from patent US20090215115A1, “SIALYLTR[…] SEQUENCE MOTIFS” (National Research Council of Canada, priority 2004, published 2009).
